Assay results published in patent US8399206B2, “Methods for diagnosis, prognosis and methods of treatment” (Nodality, Inc., priority 2008, dated 2013).

Experiments:
AML blasts = assay: SCNP / phospho-flow modulated signaling assay, AML study No. 1 (PBMC at diagnosis, CR vs NR); format: cell-based, human
[1] = test system: leukemic myeloblasts and healthy BMMb; assay: SCNP in AML patients aged >60 years (ECOG E3999), FLT3-ITD vs FLT3-WT vs healthy BMMb (Example 12); format: cell-based, human; details: FLT3-ITD blasts compared to BMMb
From the text: Modulated single cell network profiling (SCNP) was used to evaluate the activation state of intracellular signaling molecules (i.e. nodes), including phosphorylated (p)-Akt, p-Erk, p-S6, p-Stat5 and cleaved-PARP, at baseline and after treatment with specific modulators [including cytokines (such as IL-27) growth factors (such as FLT3 ligand) and drugs (such a cytosine arabinoside)] in 7 healthy bone marrow mononuclear blasts (BMMb) and leukemic myeloblasts, characterized for FLT3 receptor mutation status, from 44 AML patients (38 FLT-WT and 6 FLT3-ITD), aged>60 years (ECOG trial E3999). A total of 64 node-metrics were analyzed.

[2] = Study No. 1 sensitivity analysis, CR samples
[3] = Study No. 1 sensitivity analysis, NR samples incl. CRp

B1: FLT-3L: fms-like tyrosine kinase receptor-3 ligand (protein, UniProt P49771 27-235, looked up)
Fms-related tyrosine kinase 3 …: TQDCSFQHSPISSDFAVKIRELSDYLLQDYPVTVASNLQDEELCGGLWRLVLAQRWMERLKTVAGSKMQGLLERVNTEIHFVTKCAFQPPPSCLRFVQTNISRLLQETSEQLVALKPWITRQNFSRCLELQCQPDSSTLPPPWSPRPLEATAPTAPQPPLLLLLLLPVGLLLLAAAWCLHWQRTRRRTPRPGEQVPPVPSPQDLLLVEH
In the case of B1, the “Mean Value of CRs, p-Akt Fold” value (AML blasts; [2]) is reported as 0.10, the “Mean Value of CRs, p-CREB Fold” value (AML blasts; [2]) is reported as 0.07 and the “Mean Value of CRs, p-CREB Total Phospho” value (AML blasts; [2]) is reported as 1.39. For the same molecule, the “Mean Value of CRs, p-Erk Fold” value (AML blasts; [2]) was 0.08, the “Mean Value of CRs, p-Plcγ2 Total Phospho” value (AML blasts; [2]) was 1.81 and the “Mean Value of CRs, p-S6 Fold” value (AML blasts; [2]) was 0.14. The “Mean Value of CRs, p-Plcγ2 Fold” value (AML blasts; Study No. 1 sensitivity analysis, CR samples, negative = down regulation) was −0.14, the “Mean Value of NRs, p-Akt Fold” value (AML blasts; [3]) was 0.65 and the “Mean Value of NRs, p-CREB Fold” value (AML blasts; [3]) was 0.36. The “Mean Value of NRs, p-CREB Total Phospho” value (AML blasts; [3]) was 2.13, the “Mean Value of NRs, p-Erk Fold” value (AML blasts; [3]) was 0.33 and the “Mean Value of NRs, p-Plcγ2 Total Phospho” value (AML blasts; [3]) was 2.78. For the same molecule, the “Mean Value of NRs, p-S6 Fold” value (AML blasts; [3]) was 0.83, the “Mean Value of NRs, p-Plcγ2 Fold” value (AML blasts; Study No. 1 sensitivity analysis, NR samples incl. CRp, negative = down regulation) was −0.08 and the “FLT3 ligand-induced pathway activation” value [1] was “decreased FLT3 ligand-induced activation of P13K and Raf/Ras/Erk pathways”.

B2: IL-27: interleukin-27 (protein, UniProt Q8NEV9 29-243; Q14213 21-229, looked up)
Interleukin-27 subunit alpha: FPRPPGRPQLSLQELRREFTVSLHLARKLLSEVRGQAHRFAESHLPGVNLYLLPLGEQLPDVSLTFQAWRRLSDPERLCFISTTLQPFHALLGGLGTQGRWTNMERMQLWAMRLDLRDLQRHLRFQVLAAGFNLPEEEEEEEEEEEEERKGLLPGALGSALQGPAQVSWPQLLSTYRLLHSLELVLSRAVRELLLLSKAGHSVWPLGFPTLSPQP
Interleukin-27 subunit beta: RKGPPAALTLPRVQCRASRYPIAVDCSWTLPPAPNSTSPVSFIATYRLGMAARGHSWPCLQQTPTSTSCTITDVQLFSMAPYVLNVTAVHPWGSSSSFVPFITEHIIKPDPPEGVRLSPLAERQLQVQWEPPGSWPFPEIFSLKYWIRYKRQGAARFHRVGPIEATSFILRAVRPRARYYVQVAAQDLTDYGELSDWSLPATATMSLGK
With B2 the “Mean Value of CRs, p-CREB Total Phospho” value (AML blasts; [2]) was 1.25, the “Mean Value of CRs, p-Stat1 Total Phospho” value (AML blasts; [2]) was 0.39 and the “Mean Value of CRs, p-Stat3 Total Phospho” value (AML blasts; [2]) was 1.01. The “Mean Value of NRs, p-CREB Total Phospho” value (AML blasts; [3]) was 2.36, the “Mean Value of NRs, p-Stat1 Total Phospho” value (AML blasts; [3]) was 0.81 and the “Mean Value of NRs, p-Stat3 Total Phospho” value (AML blasts; [3]) was 1.85. The “IL-27-induced levels of total p-Stat1 and p-Stat3” value (AML blasts; staurosporine resistant samples vs other apoptosis categories) was “all greater in this apoptotic sub-category” and the “IL-27 induced activation of the Jak/Stat pathway” value [1] was “minimal IL-27 induced activation of the Jak/Stat pathway”.
